We go through 16 molecules from patent US20230021388A1 (VELOSBIO, published 2023).

B1: Ab1 Fab variant H1 T32A + L1 K29S (Fab, V domains shown)
VH: QVQLQESGPGLVKPSQTLSLTCTVSGYAFAAYNIHWVRQAPGQGLEWMGSFDPYDGGSSYNQKFKDRLTISKDTSKNQVVLTMTNMDPVDTATYYCARGWYYFDYWGHGTLVTVSS
VL: DIVMTQTPLSLPVTPGEPASISCRASSSISKYLAWYQQKPGQAPRLLIYSGSTLQSGIPPRFSGSGYGTDFTLTINNIESEDAAYYFCQQHDESPYTFGEGTKVEIK
notes: Fab
B2: Ab1 Fab variant H1 T32A + L1 A25P, K29S + L2 T69R (Fab, V domains shown)
VH: QVQLQESGPGLVKPSQTLSLTCTVSGYAFAAYNIHWVRQAPGQGLEWMGSFDPYDGGSSYNQKFKDRLTISKDTSKNQVVLTMTNMDPVDTATYYCARGWYYFDYWGHGTLVTVSS
VL: DIVMTQTPLSLPVTPGEPASISCRPSSSISKYLAWYQQKPGQAPRLLIYSGSRLQSGIPPRFSGSGYGTDFTLTINNIESEDAAYYFCQQHDESPYTFGEGTKVEIK
notes: Fab
B3: Ab1 Fab variant H1 T32A + L1 K29E (Fab, V domains shown)
VH: QVQLQESGPGLVKPSQTLSLTCTVSGYAFAAYNIHWVRQAPGQGLEWMGSFDPYDGGSSYNQKFKDRLTISKDTSKNQVVLTMTNMDPVDTATYYCARGWYYFDYWGHGTLVTVSS
VL: DIVMTQTPLSLPVTPGEPASISCRASESISKYLAWYQQKPGQAPRLLIYSGSTLQSGIPPRFSGSGYGTDFTLTINNIESEDAAYYFCQQHDESPYTFGEGTKVEIK
notes: Fab
B4: Ab1 Fab variant H1 T32A + L1 K29S + L2 T69R (Fab, V domains shown)
VH: QVQLQESGPGLVKPSQTLSLTCTVSGYAFAAYNIHWVRQAPGQGLEWMGSFDPYDGGSSYNQKFKDRLTISKDTSKNQVVLTMTNMDPVDTATYYCARGWYYFDYWGHGTLVTVSS
VL: DIVMTQTPLSLPVTPGEPASISCRASSSISKYLAWYQQKPGQAPRLLIYSGSRLQSGIPPRFSGSGYGTDFTLTINNIESEDAAYYFCQQHDESPYTFGEGTKVEIK
notes: Fab
B5: Ab1 Fab variant H1 T32A + L1 K29E + L2 T69R (Fab, V domains shown)
VH: QVQLQESGPGLVKPSQTLSLTCTVSGYAFAAYNIHWVRQAPGQGLEWMGSFDPYDGGSSYNQKFKDRLTISKDTSKNQVVLTMTNMDPVDTATYYCARGWYYFDYWGHGTLVTVSS
VL: DIVMTQTPLSLPVTPGEPASISCRASESISKYLAWYQQKPGQAPRLLIYSGSRLQSGIPPRFSGSGYGTDFTLTINNIESEDAAYYFCQQHDESPYTFGEGTKVEIK
notes: Fab
B6: Ab1 Fab variant H1 T32A + L2 T69H, L70K, Q71T (Fab, V domains shown)
VH: QVQLQESGPGLVKPSQTLSLTCTVSGYAFAAYNIHWVRQAPGQGLEWMGSFDPYDGGSSYNQKFKDRLTISKDTSKNQVVLTMTNMDPVDTATYYCARGWYYFDYWGHGTLVTVSS
VL: DIVMTQTPLSLPVTPGEPASISCRASKSISKYLAWYQQKPGQAPRLLIYSGSHKTSGIPPRFSGSGYGTDFTLTINNIESEDAAYYFCQQHDESPYTFGEGTKVEIK
notes: Fab
B7: Ab1 Fab variant H1 T32A + L2 L70K (Fab, V domains shown)
VH: QVQLQESGPGLVKPSQTLSLTCTVSGYAFAAYNIHWVRQAPGQGLEWMGSFDPYDGGSSYNQKFKDRLTISKDTSKNQVVLTMTNMDPVDTATYYCARGWYYFDYWGHGTLVTVSS
VL: DIVMTQTPLSLPVTPGEPASISCRASKSISKYLAWYQQKPGQAPRLLIYSGSTKQSGIPPRFSGSGYGTDFTLTINNIESEDAAYYFCQQHDESPYTFGEGTKVEIK
notes: Fab
B8: Ab1 Fab variant H1 T32A + L2 T69H (Fab, V domains shown)
VH: QVQLQESGPGLVKPSQTLSLTCTVSGYAFAAYNIHWVRQAPGQGLEWMGSFDPYDGGSSYNQKFKDRLTISKDTSKNQVVLTMTNMDPVDTATYYCARGWYYFDYWGHGTLVTVSS
VL: DIVMTQTPLSLPVTPGEPASISCRASKSISKYLAWYQQKPGQAPRLLIYSGSHLQSGIPPRFSGSGYGTDFTLTINNIESEDAAYYFCQQHDESPYTFGEGTKVEIK
notes: Fab
B9: Ab1 Fab variant H1 T32A + L2 T69H, L70K (Fab, V domains shown)
VH: QVQLQESGPGLVKPSQTLSLTCTVSGYAFAAYNIHWVRQAPGQGLEWMGSFDPYDGGSSYNQKFKDRLTISKDTSKNQVVLTMTNMDPVDTATYYCARGWYYFDYWGHGTLVTVSS
VL: DIVMTQTPLSLPVTPGEPASISCRASKSISKYLAWYQQKPGQAPRLLIYSGSHKQSGIPPRFSGSGYGTDFTLTINNIESEDAAYYFCQQHDESPYTFGEGTKVEIK
notes: Fab
B10: Ab1 Fab variant H1 T32A + L2 L70K, Q71T (Fab, V domains shown)
VH: QVQLQESGPGLVKPSQTLSLTCTVSGYAFAAYNIHWVRQAPGQGLEWMGSFDPYDGGSSYNQKFKDRLTISKDTSKNQVVLTMTNMDPVDTATYYCARGWYYFDYWGHGTLVTVSS
VL: DIVMTQTPLSLPVTPGEPASISCRASKSISKYLAWYQQKPGQAPRLLIYSGSTKTSGIPPRFSGSGYGTDFTLTINNIESEDAAYYFCQQHDESPYTFGEGTKVEIK
notes: Fab
B11: Ab1 Fab variant H1 T32A + H2 F58V, N71H (Fab, V domains shown)
VH: QVQLQESGPGLVKPSQTLSLTCTVSGYAFAAYNIHWVRQAPGQGLEWMGSVDPYDGGSSYHQKFKDRLTISKDTSKNQVVLTMTNMDPVDTATYYCARGWYYFDYWGHGTLVTVSS
VL: DIVMTQTPLSLPVTPGEPASISCRASKSISKYLAWYQQKPGQAPRLLIYSGSTLQSGIPPRFSGSGYGTDFTLTINNIESEDAAYYFCQQHDESPYTFGEGTKVEIK
notes: Fab
B12: Ab1 Fab variant H1 T32A + H2 S69V (Fab, V domains shown)
VH: QVQLQESGPGLVKPSQTLSLTCTVSGYAFAAYNIHWVRQAPGQGLEWMGSFDPYDGGSVYNQKFKDRLTISKDTSKNQVVLTMTNMDPVDTATYYCARGWYYFDYWGHGTLVTVSS
VL: DIVMTQTPLSLPVTPGEPASISCRASKSISKYLAWYQQKPGQAPRLLIYSGSTLQSGIPPRFSGSGYGTDFTLTINNIESEDAAYYFCQQHDESPYTFGEGTKVEIK
notes: Fab
B13: Ab1 Fab variant H1 T32A + H2 N71H (Fab, V domains shown)
VH: QVQLQESGPGLVKPSQTLSLTCTVSGYAFAAYNIHWVRQAPGQGLEWMGSFDPYDGGSSYHQKFKDRLTISKDTSKNQVVLTMTNMDPVDTATYYCARGWYYFDYWGHGTLVTVSS
VL: DIVMTQTPLSLPVTPGEPASISCRASKSISKYLAWYQQKPGQAPRLLIYSGSTLQSGIPPRFSGSGYGTDFTLTINNIESEDAAYYFCQQHDESPYTFGEGTKVEIK
notes: Fab
B14: Ab1 Fab variant H1 T32A + H2 G66E, S69V, N71H (Fab, V domains shown)
VH: QVQLQESGPGLVKPSQTLSLTCTVSGYAFAAYNIHWVRQAPGQGLEWMGSFDPYDEGSVYHQKFKDRLTISKDTSKNQVVLTMTNMDPVDTATYYCARGWYYFDYWGHGTLVTVSS
VL: DIVMTQTPLSLPVTPGEPASISCRASKSISKYLAWYQQKPGQAPRLLIYSGSTLQSGIPPRFSGSGYGTDFTLTINNIESEDAAYYFCQQHDESPYTFGEGTKVEIK
notes: Fab
B15: Ab1 Fab variant H1 T32A + H2 G66E (Fab, V domains shown)
VH: QVQLQESGPGLVKPSQTLSLTCTVSGYAFAAYNIHWVRQAPGQGLEWMGSFDPYDEGSSYNQKFKDRLTISKDTSKNQVVLTMTNMDPVDTATYYCARGWYYFDYWGHGTLVTVSS
VL: DIVMTQTPLSLPVTPGEPASISCRASKSISKYLAWYQQKPGQAPRLLIYSGSTLQSGIPPRFSGSGYGTDFTLTINNIESEDAAYYFCQQHDESPYTFGEGTKVEIK
notes: Fab
B16: Ab1 Fab variant H1 T32A + H2 F58V, S69V, N71H (Fab, V domains shown)
VH: QVQLQESGPGLVKPSQTLSLTCTVSGYAFAAYNIHWVRQAPGQGLEWMGSVDPYDGGSVYHQKFKDRLTISKDTSKNQVVLTMTNMDPVDTATYYCARGWYYFDYWGHGTLVTVSS
VL: DIVMTQTPLSLPVTPGEPASISCRASKSISKYLAWYQQKPGQAPRLLIYSGSTLQSGIPPRFSGSGYGTDFTLTINNIESEDAAYYFCQQHDESPYTFGEGTKVEIK
notes: Fab

T2 sequence (Q01973 30-937 limits assumed): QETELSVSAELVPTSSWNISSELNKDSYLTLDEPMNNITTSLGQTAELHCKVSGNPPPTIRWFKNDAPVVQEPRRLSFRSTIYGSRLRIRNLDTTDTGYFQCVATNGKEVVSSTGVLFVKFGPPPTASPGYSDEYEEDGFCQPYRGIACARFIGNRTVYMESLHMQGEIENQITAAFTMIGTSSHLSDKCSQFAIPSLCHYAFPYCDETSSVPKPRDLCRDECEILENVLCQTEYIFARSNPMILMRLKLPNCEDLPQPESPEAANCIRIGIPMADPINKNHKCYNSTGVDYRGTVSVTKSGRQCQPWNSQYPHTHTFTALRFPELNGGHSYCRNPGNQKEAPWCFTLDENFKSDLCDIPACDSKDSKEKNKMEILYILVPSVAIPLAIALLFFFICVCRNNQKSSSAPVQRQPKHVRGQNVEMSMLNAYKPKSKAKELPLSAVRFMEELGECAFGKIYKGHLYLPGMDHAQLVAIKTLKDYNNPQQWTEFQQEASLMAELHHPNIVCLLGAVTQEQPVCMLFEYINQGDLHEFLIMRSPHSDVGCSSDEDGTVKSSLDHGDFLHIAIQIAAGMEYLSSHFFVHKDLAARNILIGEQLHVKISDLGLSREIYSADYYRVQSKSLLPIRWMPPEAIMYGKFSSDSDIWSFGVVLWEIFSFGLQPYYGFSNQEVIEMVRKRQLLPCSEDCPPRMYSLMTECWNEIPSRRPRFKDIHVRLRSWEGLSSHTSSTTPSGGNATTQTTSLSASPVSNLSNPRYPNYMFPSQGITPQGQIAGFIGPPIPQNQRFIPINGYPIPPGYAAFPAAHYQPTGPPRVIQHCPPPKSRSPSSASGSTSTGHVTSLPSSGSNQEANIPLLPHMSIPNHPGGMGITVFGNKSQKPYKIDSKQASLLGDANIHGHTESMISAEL

The target in one assay is T1, recombinant human ROR1 extracellular domain (human, UniProt Q01973 30-406).
T1 construct: biotinylated for the filter lifts; also called huROR1-ECD; human ROR1-ECD
T1 sequence (Q01973 30-406 limits assumed): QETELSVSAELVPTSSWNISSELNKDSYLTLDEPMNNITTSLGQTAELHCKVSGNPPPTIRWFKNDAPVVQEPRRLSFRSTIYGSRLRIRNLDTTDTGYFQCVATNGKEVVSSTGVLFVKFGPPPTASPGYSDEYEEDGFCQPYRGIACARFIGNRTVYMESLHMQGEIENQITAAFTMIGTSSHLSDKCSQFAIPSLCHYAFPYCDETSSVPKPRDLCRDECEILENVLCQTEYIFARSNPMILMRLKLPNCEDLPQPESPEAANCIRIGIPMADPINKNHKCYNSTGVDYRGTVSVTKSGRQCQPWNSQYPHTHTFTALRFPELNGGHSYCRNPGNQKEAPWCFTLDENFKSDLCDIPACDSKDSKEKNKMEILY
The experiment in a line: ELISA with prolonged wash, soluble Fab on coated huROR1-ECD. Here is the method: (§1) The previously described filter lift assay provides a visual, qualitative assessment of antigen binding (Example 1). In order to assess the ROR1 binding activity of Ab1 Fab in a more quantitative fashion, an ELISA assay was developed. A 96-well Costar-3366 plate was coated with 50 μL/well of 1 μg/mL human ROR1-ECD (ACROBiosystems, cat. #RO1-H522y) in PBS overnight at 4° C. The plate was rinsed once with PBS-T and blocked with 100 μL/well of 5% M-P for 1 h at 25° C. Fab samples were serially diluted 3-fold using 5% M-P and 50 μL/well was incubated for 1 h at 25° C. The plate was washed three times with PBS-T and 50 μL/well anti-human kappa, and HRP conjugate (Southern Biotech, cat. #2060-05) diluted 10,000-fold in 5% M-P was added for 1 h at 25° C. In certain assays (extended wash format), the plate was placed in large volumes (up to 1 L) of PBS-T and incubated, with mixing, for 2-5 h prior to the addition of anti-human kappa, HRP conjugate. The plate was washed three times with PBS-T, and developed with 50 μL/well 1-Step Ultra TMB-ELISA (Thermo Scientific, cat. #34028). The reaction was terminated by the addition of 2 N H2504 and the A450 was determined using a Spectramax plate reader.
(§2) Subsequently, the libraries were screened by capture lift to identify the strongest binding variants. The identity of the variants was determined by DNA sequencing and the relative affinities were characterized using an ELISA (described in Example 2) modified to enable further discrimination between the highest affinity variants. Specifically, following the initial incubation with soluble Fab, the plates were washed for a prolonged time (>1 h) in large volumes of PBS-T. The plates were then developed as described in Example 2.
(An ELISA detects its analyte on a solid surface through an enzyme-linked reagent.)
With B1, the dissociation constant (Kd) amounted to 2.1 nM. Same read-out and setting: the figure for B2 is 3.9 nM; for B3 it is 3.3 nM. Same read-out and setting: then B4, with 2.1 nM; and B5, with 4.8 nM.

The target in a further assay is T1, recombinant human ROR1 extracellular …. Described as above. The source holds these as a separate data set. Here is the method: as §1, §2
B6: the Kd is 1.4 nM. Turning to B7, the Kd came to 1.6 nM. On the same count and under the same terms, then B8, with 2.3 nM.

On to B9, for which the Kd was 1.8 nM. Same read-out and setting: then B10, with 1.6 nM.

The target is the same in a further assay. Described as above. The source holds these as a separate data set. Here is the method:
as §1, §2
With B11, the Kd turned out to be 2.4 nM. Same read-out and setting: then B12, with 3.3 nM; and B13, with 2.1 nM.

B14: the Kd turned out to be 3.2 nM. The same measure, in the same setting: then B15, with 2.7 nM.

Regarding B16, the Kd was 3.9 nM.

The next assay addresses T2, human ROR1 on live cells (human, UniProt Q01973 30-937).
T2 construct: ROR1-transfected MEC cells (~56,000 copies/cell) or JeKo-1 cells (~13,000 copies/cell); the cell line is named under assay; also called ROR1-transfected MEC cells; JeKo-1 cells
The experiment in a line: flow cytometry on live JeKo-1 cells, Fab detected with anti-HA-PE. How it is done: ROR1 binding was quantitated using flow cytometry and 2.5E5 ROR1-transfected MEC cells or JeKo-1 cells for each concentration of Fab variant. The cells were placed in 50 μL of PBS with 2% FBS. Next, the cells were diluted with an equal volume of 2× stock of the test Fab variant and the cells and antibody were co-incubated on ice for 20 min. The cells were then washed 3 times with 300 μL of FACS buffer and were resuspended in 100 μL of a 70-fold dilution of anti-HA.11-PE conjugate, clone 16B12 (BioLegend, cat. #901517) and incubated on ice with reduced light for 20 min. Subsequently, the cells were washed 3 times with 300 μL of FACS buffer and fixed with 2% paraformaldehyde for 10 min at 25° C. The cells then were washed 2 times with 300 μL of FACS buffer and analyzed on a Miltenyi MACSQuant Analyzer.
B1: the “EC50 (read off the curve)” value is ~2 nM.

Take B4: the “EC50 (read off the curve)” value is ~1 nM.

As a reminder, the Kd is the free concentration of one partner at which half of the binding sites on the other are occupied at equilibrium, for simple one-to-one binding. By EC50 (read off the curve) is commonly meant the concentration giving half of the maximal effect. Low readings indicate greater potency, high ones weaker potency.
